Results: publication PMC10659534 (Research Square, 2023)

B1: H7.HK2 (antibody, V domains shown)
VH: QVQLQGSGPGLLRPSETLSLTCSVSGVSINSYYWSWVRQPPGKALEWIGYIYYSGNTNYNPSLESRVTISVDRSKNQFSLKMTSVTAADTARYFCARQGIFGDYGSDYWGPGTLVTVSS
VL: DIVMTQSPLSLPVTPGEPASISCRSNQSLQHSNGYVHLDWYRQKPGQSPHLLIYLGFNRASGVPDRFSGGGSGTDFTLKISRVEAEDVGVYYCMQGLQTPFTFGPGTTVDLK
notes: also called H7.HK2 mAb; H7.HK2 human IgG1
B2: H7.HK3 (antibody, V domains shown)
VH: QVQLVQSGSELKRPGASVKVSCRASGYTFTSYTINWVRQAPGQGLEWMGWINTSTGDPTYAQGFTGRFVFSLDTSVSTAYLEISRLKAEDTAVYYCARAFGLTVVRGGIVGVWGQGTTVTVSS
VL: not shown
notes: also called H7.HK3 mAb
B3: H7.HK1 (antibody, V domains shown)
VH: QVQLQESGPGLVKPSETLSLTCSVSGGSINSYYWTWIRQPPGKGLEWVGYIYHSGSTSYNPSLKSRITISVAPSKNHFSLELTSMTAADTAVYYCARLGGHGDYGSDYWGQGTLVTVSS
VL: DIVMTQSPVSLPVTPGEPASISCNSSQSLLHSNGYAHLDWYLQKPGQSPKLMIYLGLNRAFGVPDRFSGSGSGTDFTLKISRVEAEDVGVYYCMQALQTPFTFGPGTRVDIK
notes: also called H7.HK1 mAb; H7.HK1 human IgG1
B4: H7.HK4 (antibody, V domains shown)
VH: QVQLQESGPGLVKPSETLSLTCTVSGGSVRSASYAWSWIRQPPGKGLEWIGDIYYSGTTNYNPSLKSRVTLSVDTAKNRFSLRLRSVTAADTAVYHCARERYYYGSSGDFDYWGQGTLVTVSS
VL: DIQMTQSPSSLSASVGDRVTITCRASQGIRNYLAWFQQKPGQAPKSLIFAASSLHTGVPSRFSGSGSGTDFTLTISSLQPEDFATYYCQHYNSYPPTFGQGTKLEIK
notes: also called H7.HK4 mAb

Tests used:
Assay in all cases: ELISA
Details in all cases: both partners purified
[1] = target: H7N9 HA1 based on A/Shanghai/2/2013 (Influenza A virus A/Shanghai/2/2013 …, UniProt R4NN21, strain)
[2] = target: T1, soluble recombinant H7N9 HA based on A/Shanghai/2/2013 (Influenza A virus A/Shanghai/2/2013 …, UniProt R4NN21)
T1 construct: source: bought: Immune Technologies, New York, NY

[3] = target: H7N9 HA (A/Shanghai/2/2013) pre-treated with Endoglycosidase H (Influenza A virus A/Shanghai/2/2013 …, UniProt R4NN21)
[4] = target: T2, recombinant H7N7 HA based on A/Netherlands/219/2003 (Influenza A virus …, UniProt Q6VMK1)
T2 construct: source: bought: Immune Technologies, New York, NY

H15N8 HA = H15N8 HA (Influenza A virus H15N8, strain not …, UniProt Q82565, strain)

Binder	binding result [1]	binding result [2]	binding result [3]	binding result [4]	binding result (H15N8 HA)
B1	binds	binds	binds	binds	–
B2	binds	binds	binds	binds	binds
B3	binds	binds	binds	binds	–
B4	no binding	binds	binds	binds	binds
